Drawing on article PMC12135937, this text covers Kd for one molecule.

Assay in all cases: SPR; Biacore T100, CM4 chip; DIPs immobilised by amine coupling (700-900 RU), monomeric Dpr analytes in 3-fold dilution series (0.012 to 9, 27 or 81 µM); 25 °C; 10 mM Tris-HCl pH 7.2, 150 mM NaCl, 1 mM EDTA, 1 mg/mL BSA, 0.01% Tween-20; equilibrium responses fit to a 1:1 model
(In general: Surface plasmon resonance follows binding to a sensor surface in real time, without labels.)

The target in assay [1] is DIP-λ (Drosophila melanogaster).
DIP-λ (Drosophila melanogaster), sequence (main, as listed by the source): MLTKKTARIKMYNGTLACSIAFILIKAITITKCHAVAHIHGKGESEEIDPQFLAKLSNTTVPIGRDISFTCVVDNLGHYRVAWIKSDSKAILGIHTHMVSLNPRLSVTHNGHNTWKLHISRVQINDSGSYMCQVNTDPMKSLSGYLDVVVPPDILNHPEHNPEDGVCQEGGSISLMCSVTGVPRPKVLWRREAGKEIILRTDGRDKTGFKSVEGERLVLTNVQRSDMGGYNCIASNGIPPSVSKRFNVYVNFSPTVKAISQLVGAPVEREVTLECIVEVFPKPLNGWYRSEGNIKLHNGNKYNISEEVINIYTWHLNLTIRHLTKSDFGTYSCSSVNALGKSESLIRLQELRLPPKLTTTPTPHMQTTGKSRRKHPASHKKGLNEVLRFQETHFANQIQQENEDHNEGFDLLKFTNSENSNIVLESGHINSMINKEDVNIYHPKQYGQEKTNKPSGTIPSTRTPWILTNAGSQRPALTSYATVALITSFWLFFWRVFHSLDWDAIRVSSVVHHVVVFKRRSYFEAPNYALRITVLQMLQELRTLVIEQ
Assay [2] addresses DIP-α (Drosophila melanogaster) (UniProt Q9W4R3).
Assay [3] addresses DIP-β isoform C (Drosophila melanogaster).

DIP-α (Drosophila melanogaster), sequence (Q9W4R3 entry or part of it): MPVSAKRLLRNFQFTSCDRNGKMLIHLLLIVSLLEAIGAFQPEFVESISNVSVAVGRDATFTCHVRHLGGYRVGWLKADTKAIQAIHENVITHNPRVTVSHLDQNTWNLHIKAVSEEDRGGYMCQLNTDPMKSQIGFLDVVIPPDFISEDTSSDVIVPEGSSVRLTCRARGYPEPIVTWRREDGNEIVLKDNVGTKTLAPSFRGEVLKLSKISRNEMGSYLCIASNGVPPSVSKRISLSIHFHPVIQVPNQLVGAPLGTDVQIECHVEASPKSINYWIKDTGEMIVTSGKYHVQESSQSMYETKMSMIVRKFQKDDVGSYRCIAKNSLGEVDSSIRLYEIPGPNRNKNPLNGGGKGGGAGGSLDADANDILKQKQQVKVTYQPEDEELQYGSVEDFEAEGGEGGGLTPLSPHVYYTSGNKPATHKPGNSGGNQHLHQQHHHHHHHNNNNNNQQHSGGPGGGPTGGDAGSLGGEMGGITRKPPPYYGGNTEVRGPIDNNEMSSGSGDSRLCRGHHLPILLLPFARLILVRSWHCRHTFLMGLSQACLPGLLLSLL
DIP-β isoform C (Drosophila melanogaster), sequence (main, as listed by the source): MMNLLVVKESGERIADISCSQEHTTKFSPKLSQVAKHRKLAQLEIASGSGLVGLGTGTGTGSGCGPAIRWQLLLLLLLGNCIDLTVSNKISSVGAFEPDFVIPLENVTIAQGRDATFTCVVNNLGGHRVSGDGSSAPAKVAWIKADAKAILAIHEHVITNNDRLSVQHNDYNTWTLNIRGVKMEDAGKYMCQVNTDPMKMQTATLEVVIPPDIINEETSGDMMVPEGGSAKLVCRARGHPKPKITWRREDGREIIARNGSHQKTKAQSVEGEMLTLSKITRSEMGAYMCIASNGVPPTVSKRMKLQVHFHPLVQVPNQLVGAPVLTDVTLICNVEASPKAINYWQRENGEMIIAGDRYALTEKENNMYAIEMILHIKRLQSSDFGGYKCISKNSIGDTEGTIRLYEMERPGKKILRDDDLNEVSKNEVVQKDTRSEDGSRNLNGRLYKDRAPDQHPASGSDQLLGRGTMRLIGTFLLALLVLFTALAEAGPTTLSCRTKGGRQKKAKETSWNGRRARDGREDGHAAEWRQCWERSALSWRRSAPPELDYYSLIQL

B1: Dpr10 isoform A (domain or fragment)
chain: WNEPYFDLTMPRNITSLVGKSAYLGCRVKHLGNKTVAWIRHRDLHILTVGTYTYTTDQRFQTSYHRDIDEWTLQIKWAQQRDAGVYECQISTQPVRSYSVNLNIVDLIDAETSDIMQQYYNDDAFYIAENRVYQSSNDEFAGMFGPIQTVAVPTATILGGPDLYVDKGSTINLTCIIKFSPEPPTHIFWYHQDKVLSEETSGGRLKFKTIKSEETKSILLIYDADLLHSGKYSCYPSNTEIASIRVHVLQGE
Turning to B1, the values for the Kd in assay [1], in assay [2] and in assay [3] were 5.84 µM, 1.34 µM and 84 µM, respectively.
